This data set is described as follows: protein stability index of a GFP-peptide fusion (GPS, HEK-293T) (PSI 1-6); higher = more stable.
The mark [1] stands for this setting: treatment: DMSO, c terminus: a fixed tail appended.
Where [2] appears, read: treatment: MLN4924 1 uM, 8 h, c terminus: a fixed tail appended.

± gives the standard deviation.

The record followed here is the supplement of paper PMC10567573.
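Also: 24-mer peptide tiles fused after GFP, lentivirally expressed, FACS-sorted into six equal bins by GFP/DsRed ratio, decoded by Illumina sequencing, PSI is the read-weighted mean bin number.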

As to EPPTEAASREENQAGPEATTSDPQ [PALM], the protein stability index under setting [1] was found to be 5.61 ± 0.26 and the protein stability index under setting [2] came out at 5.49 ± 0.3.
For EQARAYAEKNCMTFFEVSPLCNFN [RAB40C] the same measures were 2.49 ± 0.31 and 2.38 ± 0.15.
For ERAHKGEKPYGCSECGKAFPRKSE [ZNF649] the same measures were 4.23 ± 0.12 and 4.7 ± 0.48.
In the same order, the values of ERAPTATFHDSKHNIVHVHFDATR [WDFY2] are 3.34 ± 0.17 and 3.33 ± 0.29.
Regarding EREVRAKNGRVDSEDRRSRHCPYL [USP39], the protein stability index under setting [1] stood at 4.39 ± 0.24 and the protein stability index under setting [2] came to 4.5 ± 0.32.
For ERFHGVGILGFNSAEWFITAVGAI [ACSBG2] the same measures were 2.75 ± 1.1 and 2.78 ± 1.3.
For ERRELAVEQGERALERRRRALQEE [ZBED3] the same measures were 5.34 ± 0.17 and 5.39 ± 0.31.
Regarding ERSLRLQARYHDTPYKPPAGRAAA [MYORG], the protein stability index was 3.55 ± 0.31 under setting [1] and 4.15 ± 0.11 under setting [2].
In the same order, the values of ESENASLREKLRLREAEIARIRDE [LRRC45] are 5.26 ± 0.17 and 5.11 ± 0.11.
For ESLKEELLSLKQNHEQEVNTLRCQ [KRT33B] the same measures were 4.91 ± 0.099 and 4.78 ± 0.24.
For ESLMKDGDKNNDGRIDFDEFLKMM [TNNC2] the same measures were 4.53 ± 0.1 and 4.55 ± 0.31.
With ESQVFSEKLATDTSTFEATSEGTL [ZNF232], the protein stability index reads like this: under setting [1], 5.29 ± 0.13; under setting [2], 5.15 ± 0.13.
For ETIPLTAEKLCIYTDNSIRPEELL [CCND1], the protein stability index is 3.59 ± 0.41 under setting [1] and 3.94 ± 0.34 under setting [2].
In the same order, the values of ETKLHLLRQEMVNLRATDVRLMRQ [LURAP1L] are 2.96 ± 0.34 and 3.17 ± 0.16.
As for ETSYQQREERLRRENEELSARYLS [FBF1], the protein stability index is 4.79 ± 0.2 under setting [1] and 4.89 ± 0.17 under setting [2].
In the same order, the values of EVASNTEMIQTSKTEITDLRRTMQ [KRT15] are 3.89 ± 0.21 and 4.27 ± 0.32.
In the same order, the values of EVFIEWGISAKVFGATTNYGKDIV [ZBED1] are 2.35 ± 0.64 and 2.44 ± 0.3.
In the same order, the values of EVHFLHEESILERVQQHIESKLLG [MLH1] are 2.98 ± 0.19 and 3.19 ± 0.24.
Turning to EVTASQEARGLRLSDLEDLEEEEE [IRX6], the protein stability index reads like this: under setting [1], 5.73 ± 0.34; under setting [2], 5.64 ± 0.14.
As to EYFFDRNRPSFDAILYYYQSGGRL [KCNA1], the protein stability index runs as follows: under setting [1], 2.52 ± 0.43; under setting [2], 2.18 ± 0.29.
In the same order, the values of EYQLNDSAAYYLNDLDRIAQPNYI [GNAI1] are 2.61 ± 0.15 and 2.79 ± 0.49.
For FDSPSLCSSSTRSVLKRPERSQEE [CDC25A] the same measures were 5.04 ± 0.31 and 5.12 ± 0.16.
In the same order, the values of FEYPESSGPARVIAIVSVMVILIS [KCNA1] are 2.82 ± 0.47 and 2.87 ± 0.48.
On to FFIESCGAQVPVEGSRRETSITV, for which the protein stability index was found to be 2.56 ± 0.97 (treatment: DMSO, c terminus: native) and 2.29 ± 0.36 (treatment: MLN4924 1 uM, 8 h, c terminus: native).
As to FGGVDGLLAGGEKATMQNLNDRLA [KRT17], the protein stability index by setting is: under setting [1], 3.5 ± 0.32; under setting [2], 3.69 ± 0.26.
For FIENNVSKLSLLLNDISRKSEGLS [TRIP13] the same measures were 2.39 ± 0.35 and 2.33 ± 0.26.
With FKKGNRYIRCQKEVGKSFERHKLK [SMG5], the protein stability index reads like this: under setting [1], 2.75 ± 0.23; under setting [2], 2.85 ± 0.14.
Sequence FKKTAYELLDEKLLARGTMQPFNY [FEM1A] had a protein stability index under setting [1] of 2.37 ± 0.46 and a protein stability index under setting [2] of 2.61 ± 0.17.
For FKTIEELRDKIMATTIDNSRVILE [KRT15] the same measures were 2.54 ± 0.28 and 2.65 ± 0.26.
In the same order, the values of FLDERLYCESHAKARVKPPEGYDV [PDLIM4] are 2.78 ± 0.8 and 3.23 ± 0.93.
Consider FLESQGIELNPPEKMALDPYTELR [EFHC1], for which the protein stability index reads like this: under setting [1], 3.79 ± 0.41; under setting [2], 3.89 ± 0.35.
In the case of FLFPIDISLVKREHDFLDRDAIEA [DLC1], the protein stability index runs as follows: under setting [1], 2.66 ± 0.57; under setting [2], 2.72 ± 0.31.
In the same order, the values of FLQNAKTLLKKISEASKAFQMEKI [TRIM55] are 3 ± 0.65 and 2.77 ± 0.42.
For FLRSLRQMKQKVQSLYQEVFGRLR [NFE2L1] the same measures were 2.41 ± 0.59 and 1.7 ± 0.43.
For FLSFSMYQSFVQFLQYYYQSGCLY [TMEM120A] the same measures were 3.02 ± 0.39 and 3.54 ± 0.45.
As for FMEMNQKLFDDCTQQFKAEKLKEK [PPP2R5C], the protein stability index is, setting by setting: under setting [1], 4.26 ± 0.31; under setting [2], 4.43 ± 0.28.
For FNGDFVDRGKDSVEILMILFAFML [PPEF2] the same measures were 2.62 ± 0.54 and 2.15 ± 0.27.
Regarding FPDGDDEFDSPHEDIVFETDHILE [STX11], the protein stability index under setting [1] is 5.19 ± 0.25 and the protein stability index under setting [2] came to 5.29 ± 0.16.
Regarding FQAKKIPIVSSLADPLDTPPDSKE [PDZK1], the protein stability index is, setting by setting: under setting [1], 4.16 ± 0.3; under setting [2], 4.39 ± 0.63.
For FQCNQCGASFTQKGNLLRHIKLHS [IKZF1] the same measures were 4.56 ± 0.16 and 4.4 ± 0.76.
For FRGDDGIFDDNFIEERKQGLEQFI [SNX3] the same measures were 3.28 ± 0.18 and 3.76 ± 0.66.
As for FSEIISSISDVKFSHSGRYIMTRD [PPP2R2B], the protein stability index runs as follows: under setting [1], 2.52 ± 0.28; under setting [2], 2.53 ± 0.29.
In the same order, the values of FSGWISALVVPKGNTAVSVLMLLV [SCAMP3] are 2.87 ± 0.39 and 2.73 ± 0.46.
For FSHTLVSLSLFGCTNIFYEEENPG [ZER1] the same measures were 2.65 ± 0.12 and 2.29 ± 0.029.
For FSTSKWNHLLHHFVIGHLKGAPAS [FADS1] the same measures were 2.65 ± 0.67 and 2.17 ± 0.38.
FSVLEGEKNNHRAKDLRAPPEQGK [SOAT1]: the protein stability index by setting is: under setting [1], 5.08 ± 0.26; under setting [2], 4.92 ± 0.18.
In the same order, the values of FTFEGFSRLRFLNLGRMIDWVPVE [ZER1] are 2.76 ± 0.63 and 2.81 ± 0.43.
For FTTSILRHWCMKHDELLAEHIKSL [INTS3] the same measures were 2.22 ± 0.2 and 2.17 ± 0.18.
In the same order, the values of GAVAPPVSGDLTKEDIDLIDILWR [NFE2L1] are 3.16 ± 0.17 and 3.67 ± 0.53.
GAVLALVAIFIMSLNKRHSSGDGN [MFSD9]: the protein stability index by setting is: under setting [1], 3 ± 0.21; under setting [2], 3.43 ± 0.59.
In the same order, the values of GAYDFPSPEWDTVTPEAKNLINQM [CAMK2B] are 3.76 ± 0.25 and 3.85 ± 0.25.
For the sequence GCLAEAVSVIQSIPIFNETGRFSF [HACD3], the protein stability index is, setting by setting: under setting [1], 2.91 ± 0.66; under setting [2], 2.6 ± 0.77.
In the same order, the values of GDTPIRKKEELLFDDGDDIMATLG [FBF1] are 4.35 ± 0.18 and 4.47 ± 0.29.
For GEAQPGLPQEDPSTSQGCAQPQGA [FEM1A] the same measures were 5.36 ± 0.21 and 5.51 ± 0.13.
In the same order, the values of GEQEHSQQKEEEEEMAVVPQGLFR [CHGA] are 5.45 ± 0.43 and 5.55 ± 0.28.
With GFGVLRLDADAAQRVVYLEGCGPP [TSPAN10], the protein stability index reads like this: under setting [1], 2.88 ± 0.33; under setting [2], 2.65 ± 0.13.
For GGKKDKARYIDTHNRVSKEDEDIY [PLK2] the same measures were 4.37 ± 0.27 and 4.73 ± 0.4.
In the same order, the values of GGLEHVPSSSSIHNGDMEKILLDA [BNIP3L] are 4.85 ± 0.23 and 4.68 ± 0.61.
For GGLFVGKEGPMIHSGSVVGAGLPQ [CLCN6] the same measures were 3.39 ± 0.16 and 3.46 ± 0.44.
As to GGLNTETNEKALEAVFGKYGRIVE [RBMX], the protein stability index reads like this: under setting [1], 3.59 ± 0.26; under setting [2], 3.22 ± 0.47.
For GGMMPPGPGIPPLMPGMPPGMPPP [ZNF207] the same measures were 3.89 ± 0.43 and 4.09 ± 0.15.
In the same order, the values of GGPGRQTTSPNVLWPTPGHLSPLV [ESR2] are 2.97 ± 0.22 and 3.15 ± 0.048.
For GGQCCRRQDSPSPDFYKQSSPNLQ [PCDHGC5] the same measures were 3.77 ± 0.33 and 3.78 ± 0.23.
In the case of GGSGPAGLRASTSDGILRGNGTGY [RHOBTB2], the protein stability index reads like this: under setting [1], 4.31 ± 0.27; under setting [2], 4.24 ± 0.39.
In the same order, the values of GIELMEVDPIGHVYIFATCLGLSY [MAGEA6] are 3.02 ± 0.66 and 2.92 ± 0.41.
GKEQSRRDDLEALGHMFMYFLRGS [CSNK1G3]: the protein stability index worked out at 2.38 ± 0.34 under setting [1] and 2.29 ± 0.45 under setting [2].
In the same order, the values of GKLKCDICGIICIGPNVLMVHKRS [IKZF1] are 2.91 ± 1.6 and 2.26 ± 0.75.
For GKNLYTNEYVAIKLEPIKSRAPQL [CSNK1G1] the same measures were 2.35 ± 0.032 and 2.58 ± 0.13.
For GKSPVNMVTVAMVAGQCEFAHILH [ZNF649] the same measures were 2.63 ± 0.63 and 2.34 ± 0.62.
In the case of GLHLTDPSQRLVQNCLWTLRNLSD [CTNNB1], the protein stability index under setting [1] came out at 2.29 ± 0.31 and the protein stability index under setting [2] is 2.45 ± 0.27.
In the same order, the values of GLLALAIGLWGLAVKGSLGSDLGG [TSPAN10] are 4.49 ± 0.53 and 3.4 ± 0.37.
For GMDFHRFYFENALSKSNKPIHTII [CAMK2D] the same measures were 2.94 ± 1.8 and 2.06 ± 1.1.
